Experimental findings from patent CN117836322A (PASTEUR INSTITUT, dated 2024) are described below.

B1: Cv2.1353 IgG1 (antibody, V domains shown)
VH: EVQLVESGGGLVQPGGSLRLSCAASGVTVSSNYMNWVRQAPGKGLEWVSVIYSGGSTFYADSVKGRFIISRDNSKNTLYLQMNSLKTEDTAVYYCARDLGPMGFDIWGQGTMVTVSS
VL: DIQMTQSPSFLSASVGDRVTITCRASQGISSYLAWYQQKPGKAPKLLIYAASTLQSGVPSRFSGSGSGTEFTLTISSLQPEDFATYYCQQLNSDPPVTFGPGTKVDIKR
B2: Cv2.1169 IgG1 (antibody, V domains shown)
VH: QVQLVQSGPEVKKPGTSVKVSCKASGFTFTTSAVQWVRQARGQRLEWIGWIVVGSGNTNYAQKFQERVTITRDMSTTTAYMELSSLRSEDTAVYYCAAPYCSGGTCLDGFDIWGQGTMVTVSS
VL: not shown
B3: Cv2.3194 IgG1 (antibody, V domains shown)
VH: EVQLVESGGGLIQPGGSLRLSCAASGITVTSNYMSWVRQAPGKGLEWVSVIYPGGSTFYADSVKGRFTISRDNSKNTLYLQMNSLRAEDTAVYYCARDLVVYGMDVWGQGTTVTVSS
VL: EIVLTQSPGTLSLSPGERATLSCRASQSVSSSYLAWYQQKPGQAPRLLIYGASSRATGIPGRFSGSGSGTDFTLTISRLEPEDFAIYYCQQGVTFGGGTKVEIKR
B4: Cv2.5213 IgG1 (antibody, V domains shown)
VH: EVQLVESGGGLIQPGGSLRLSCAASGFTVSSNYMSWVRQAPGKGLEWVSLIYSGGSTYYADSVKGRFTISRDNSKNTLYLQMNSLRAEDTAVYYCARDLNYYGMDVWGQGATVTVSS
VL: DIQMTQSPSSLSASVGDRVTITCRASQGISSYLAWYQQKPGKAPKLLIYAASTLQSGVPSRFSGSGSGTDFTLTISSLQPEDFATYYCQQLDSYSPFTFGPGTKVDIKR
B5: Cv2.3235 IgG1 (antibody, V domains shown)
VH: EVQLVESGGGLIQPGGSLRLSCAASGFTVSRNYMSWVRQAPGKGLEWVSVIYSGGSTFYADSVKGRFTISRDNSKNTLYLQMNSLRAEDTAVYYCARDGDYYGMDVWGQGTTVTVSS
VL: DIQMTQSPSFLSASVGDRVTITCRASQGISSFLAWYQQKPGKAPKLLIYGASTLQSGVTSRFSGSGSGTEFTLTISSLQPEDFATYYCQRLDSYPPITFGQGTRLEIKR

The experiment deals with T1, SARS-CoV-2 S1结构域 (SARS-CoV-2, UniProt P0DTC2 16-681).
T1 construct: also called S1亚基
The experiment is described as follows: SPR (Biacore), antibody coupled to CM5 chip, viral protein as analyte, 25°C. On the technique in general: In SPR one partner is held on a chip, and binding of the other changes the refractive index at the surface.
For B1, the Kd (in general, the free concentration of one partner at which half of the binding sites on the other are occupied at equilibrium, for simple one-to-one binding) is < 1000 nM. In the case of B2, the dissociation constant Kd was < 1000 nM. On to B3, for which the Kd is < 1000 nM. For the molecule B4, the equilibrium dissociation constant (Kd) is < 1000 nM.

As for B5, the dissociation constant (Kd) was < 1000 nM.
